# Reference: patent publication US20130034585A1 (BOARD OF SUPERVISORS OF LOUISIANA STATE UNIVERSITY AND …, published 2013)
# Where a chain is given by its changes, count along the chain named.
# B1: BHV-1 wt UL49.5 (glycoprotein N) (other)
# chain: DPLLDAMRREGAMDFWSAGCYARGVPLSEPPQALVVFYVALTAVMVAVALYAYGLCFRLMGASGPNKKESRGRG
# B2: BHV-1 UL49.5 30AAA32 (other)
# chain: B1 chain with R8A, R9A, E10A
# B3: BHV-1 UL49.5 30AAA32 CT-null (other)
# chain: DPLLDAMAAAGAMDFWSAGCYARGVPLSEPPQALVVFYVALTAVMVAVALYAYGLCF
# B4: BHV-1 UL49.5 CT-null (other)
# chain: B3 chain with A8R, A9R, A10E
# B5: BHV-1 UL49.5Δ30-32 (other)
# chain: DPLLDAMGAMDFWSAGCYARGVPLSEPPQALVVFYVALTAVMVAVALYAYGLCFRLMGASGPNKKESRGRG
# B6: BHV-1 UL49.5Δ30-32 CT-null (other)
# chain: DPLLDAMGAMDFWSAGCYARGVPLSEPPQALVVFYVALTAVMVAVALYAYGLCF
# Target: bovine TAP1 (bovine)
# Test: cell-based or functional assay
Binder,MHC-I surface expression on infected MDBK cells (FACS) [%],"inhibition of TAP-mediated peptide transport in infected MDBK cells at 8 hpi (FITC peptide, FACS) [%]",MHC-I surface expression relative to BHV-1 wt-infected MDBK cells [fold],peptide transport at 8 hpi relative to BHV-1 wt-infected MDBK cells [fold]
B1,36.2,84,–,–
B2,75,27,2,4
B3,89.1,10,2.5,~6
B4,49.6,63,1.3,2.5
B5,74.3,23,2,4
B6,88.6,7,2.5,~6
